Article PMC3792639, “Complex structure of type VI peptidoglycan muramidase effector and a cognate immunity protein” (Acta Crystallographica Section D: Biological Crystallography, 2013)
Numbering of substitutions follows the chain as printed.

T1: Tse3 (type VI secretion exported 3), native recombinant protein (P. aeruginosa, UniProt Q9HYC5 1-408)
T1 construct: Tse3, type VI secretion exported 3, peptidoglycan muramidase effector of Pseudomonas aeruginosa; full-length, synthetic gene in pET-22b (NdeI/XhoI); Removal of the His tag is not mentioned; also called muramidase effector; source: E. coli BL21(DE3), purified (Ni-NTA, cation exchange, SEC)
T1 sequence: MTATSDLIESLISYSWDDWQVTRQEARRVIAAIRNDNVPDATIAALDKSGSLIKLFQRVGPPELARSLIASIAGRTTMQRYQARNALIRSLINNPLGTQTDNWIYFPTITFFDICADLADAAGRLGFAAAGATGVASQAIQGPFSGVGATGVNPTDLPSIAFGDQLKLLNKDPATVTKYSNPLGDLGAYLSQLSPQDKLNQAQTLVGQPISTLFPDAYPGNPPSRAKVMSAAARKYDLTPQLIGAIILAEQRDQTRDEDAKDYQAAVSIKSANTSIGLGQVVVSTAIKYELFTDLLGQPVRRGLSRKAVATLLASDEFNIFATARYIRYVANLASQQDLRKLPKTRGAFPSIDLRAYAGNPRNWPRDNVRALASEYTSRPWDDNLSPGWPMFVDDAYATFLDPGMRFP

B1: Tsi3, truncated, without the N-terminal signal peptide (wild type) (natural protein)
chain: GVDFDKTLTHPNGLVVERPVGFDARRSAEGFRFDEGGKLRNPRQLEVQRQDAPPPPDLASRRLGDGEARYKVEEDDGGSAGSEYRLWAAKPAGARWIVVSASEQSEDGEPTFALAWALLERARLQ
notes: Tsi3, immunity protein of Tse3, Pseudomonas aeruginosa; truncated, without the N-terminal signal peptide (residues 1-20); synthetic gene in pET-22b (NdeI/XhoI); also called wild-type Tsi3; cognate immunity protein; source: E. coli BL21(DE3), purified (Ni-NTA, ion exchange, SEC)
B2: Tsi3 E126A (natural protein)
chain: B1 chain with E106A
notes: Tsi3, Pseudomonas aeruginosa, mutant of the truncated construct without the signal peptide (residues 1-20)
B3: Tsi3 Q124A (natural protein)
chain: B1 chain with Q104A
notes: as for B2
B4: Tsi3 E103A (natural protein)
chain: B1 chain with E83A
notes: as for B2
B5: Tsi3 S99A (natural protein)
chain: B1 chain with S79A
notes: as for B2

Target: T1, Tse3 (type VI secretion exported 3), …
Experiment: not stated; stoichiometry observed in solution; method not given
Conditions: both partners purified

Binder | stoichiometry N
B1 | 1

Target: T1, Tse3 (type VI secretion exported 3), …
Experiment: SPR; Biacore 3000, 298 K; Tse3 immobilised on a CM5 chip (2689.1-3396.3 RU); Tsi3 injected, single-cycle kinetics, five concentrations (0.02-1.62 µM for wild type, E103A, Q124A; 0.1-8.1 µM for R60A, S99A, E126A); running buffer 50 mM HEPES pH 7.5, 100 mM NaCl, 0.005% Tween-20; 1:1 Langmuir fit
Conditions: both partners purified

Binder | Kd [nM] | kon [M⁻¹ s⁻¹]
B1 | 28.1 | 12900
B2 | 417 | 12100
B3 | 58.8 | 17300
B4 | 43.6 | 14300
B5 | 3290 | 8990
